From patent USRE47150 (Bayer, dated 2018)
Numbering of substitutions follows the chain as printed. In names and notes the source's numbering stands.

T1: mouse tissue factor pathway inhibitor (TFPI) (mouse, UniProt O54819 29-289, limits assumed)
T1 construct: bought; also called mTFPI; murine TFPI
T1 sequence (looked up): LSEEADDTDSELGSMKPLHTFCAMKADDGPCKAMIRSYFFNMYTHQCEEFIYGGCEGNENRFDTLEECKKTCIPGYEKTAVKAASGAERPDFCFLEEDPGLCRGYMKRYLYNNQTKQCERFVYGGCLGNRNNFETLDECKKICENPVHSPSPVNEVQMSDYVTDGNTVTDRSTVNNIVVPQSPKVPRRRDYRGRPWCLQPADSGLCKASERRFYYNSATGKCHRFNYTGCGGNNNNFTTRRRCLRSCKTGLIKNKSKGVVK

T2: human tissue factor pathway inhibitor (TFPI) (human, UniProt P10646 29-304, limits assumed)
T2 construct: bought; also called hTFPI; human TFPI
T2 sequence (looked up): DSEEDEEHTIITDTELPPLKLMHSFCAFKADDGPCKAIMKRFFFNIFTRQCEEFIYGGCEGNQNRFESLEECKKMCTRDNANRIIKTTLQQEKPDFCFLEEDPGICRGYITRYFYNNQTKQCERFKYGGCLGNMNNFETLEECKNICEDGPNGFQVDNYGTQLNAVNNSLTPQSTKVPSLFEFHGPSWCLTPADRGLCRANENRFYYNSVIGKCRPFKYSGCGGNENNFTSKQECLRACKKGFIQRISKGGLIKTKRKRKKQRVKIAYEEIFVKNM

B1: 4B7 HC_D62R (Fab, V domains shown)
VH: QVQLQQSGPGLVKPSQTLSLTCAISGDSVSSNSAAWSWIRQSPGRGLEWLGIIYKRSKWYNRYAVSVKSRITINPDTSKNQFSLQLNSVTPEDTAVYYCARWHSDKHWGFDYWGQGTLVTVSS
VL: DIVMTQSPLSLPVTPGEPASISCRSSQSLVFSDGNTYLNWYLQKPGQSPQLLIYKGSNRASGVPDRFSGSGSGTDFTLKISRVEAEDVGVYYCQQYDSYPLTFGQGTKVEIKR
notes: also called 4B7-D62R
B2: 2A8 wild-type Fab (Fab, V domains shown)
VH: QVQLVESGGGLVQPGGSLRLSCAASGFTFRSYGMSWVRQAPGKGLEWVSSIRGSSSSTYYADSVKGRFTISRDNSKNTLYLQMNSLRAEDTAVYYCARKYRYWFDYWGQGTLVTVSS
VL: DIELTQPPSVSVAPGQTARISCSGDNLRNYYAHWYQQKPGQAPVVVIYYDNNRPSGIPERFSGSNSGNTATLTISGTQAEDEADYYCQSWDDGVPVFGGGTKLTVLG
notes: Fab with c-myc (or HA, or none) and 6xHis tag at the C-terminus of the heavy chain; also called 2A8wt; 2A8 wt
B3: 2A8 HC_K99L (Fab, V domains shown)
VH: B2 VH with K99L
VL: B2 VL
notes: also called 2A8-9
B4: 2A8-127 (HC S35D+K99L/LC Y48F+N51V+G56D+V96W) (Fab, V domains shown)
VH: B2 VH with S35D, K99L
VL: B2 VL with Y48F, N51V, G56D, V96W
B5: 2A8-143 (HC S35D+S55R+K99L/LC Y48F+N51V+D91L+V96W) (Fab, V domains shown)
VH: B2 VH with S35D, S55R, K99L
VL: B2 VL with Y48F, N51V, D91L, V96W
B6: 2A8-216 (HC S31V+I51D+S55R+K99V/LC Y48F+D91L+V96W) (Fab, V domains shown)
VH: B2 VH with S31V, I51D, S55R, K99V
VL: B2 VL with Y48F, D91L, V96W
B7: 2A8-200 (HC S35D+S55R+K99L/LC Y48F+N51V+D91W) (Fab, V domains shown)
VH: B2 VH with S35D, S55R, K99L
VL: B2 VL with Y48F, N51V, D91W
B8: 2A8-g216 (HC S31V+I51D+S55R+K99V/LC D1S+I2Y+A13S+S21T+R28P+N29K+Y48F+N51S+E80M+D91L+D92S+V94T+V96W) (Fab, V domains shown)
VH: B2 VH with S31V, I51D, S55R, K99V
VL: SYELTQPPSVSVSPGQTARITCSGDNLPKYYAHWYQQKPGQAPVVVIFYDSNRPSGIPERFSGSNSGNTATLTISGTQAMDEADYYCQSWLSGTPWFGGGTKLTVLG
B9: 2A8-g200 (HC Q1E+R30S+S35D+S55R+S56G+K99L/LC D1S+I2Y+A13S+S21T+R28P+N29K+Y48F+N51V+E80M+S89A+D91W+D92S+G93S+V94T) (Fab, V domains shown)
VH: B2 VH with Q1E, R30S, S35D, S55R, S56G, K99L
VL: B8 VL with S51V, S89A, L91W, G93S, W96V

Target: T1, mouse tissue factor pathway inhibitor …
Experiment: equilibrium ELISA

Row | variant/wild-type | Binder
1 | 230 ratio | B1

Target: T1, mouse tissue factor pathway inhibitor …
Experiment: SPR, TFPI immobilized

Row | Improvement | Kd | koff | kon | Binder
2 | 137 fold | 0.427 nM | 0.00367 s⁻¹ | 8.58e+06 M⁻¹ s⁻¹ | B1
3 | 1 fold | 3.51 nM | 0.00517 s⁻¹ | 1.47e+06 M⁻¹ s⁻¹ | B2
4 | 7.2 fold | 0.488 nM | 0.000759 s⁻¹ | 1.56e+06 M⁻¹ s⁻¹ | B3

Target: T2, human tissue factor pathway inhibitor …
Experiment: competitive ELISA

Row | variant/wild-type | Binder
5 | 32.3 ratio | B1

Target: T3, recombinant TFPI of the FXa restoring assay (human, mouse or rat; not specified for Tables 9 and 10)
Experiment: cell-based or functional assay

Row | EC50, FXa restoring assay | Improvement vs parental 2A8, FXa restoring assay | Binder
6 | 7.91 nM | 1 fold | B2
7 | 0.44 nM | 18.2 fold | B4
8 | 0.5 nM | 15.8 fold | B5
9 | 1.08 nM | 7.3 fold | B6
10 | 0.81 nM | 9.7 fold | B7
11 | 1 nM | 7.9 fold | B3

Target: T1, mouse tissue factor pathway inhibitor …
Experiment: SPR, TFPI immobilized
Remark: another data set of the same source

Row | KD fold improvement | Kd | koff | kon | Binder
12 | 1 fold | 3.29 nM | 0.0031 s⁻¹ | 940000 M⁻¹ s⁻¹ | B2
13 | 41.6 fold | 0.0791 nM | 7.78e-05 s⁻¹ | 984000 M⁻¹ s⁻¹ | B8
14 | 27.3 fold | 0.121 nM | 0.000139 s⁻¹ | 1.15e+06 M⁻¹ s⁻¹ | B9
15 | 18.5 fold | – | – | – | B4
16 | 48.5 fold | – | – | – | B5
17 | 63.9 fold | 0.0515 nM | 0.000216 s⁻¹ | 4.19e+06 M⁻¹ s⁻¹ | B6
18 | 55.4 fold | – | – | – | B7

Target: T1, mouse tissue factor pathway inhibitor …
Experiment: competitive ELISA

Row | variant/HC_K99L | Binder
19 | 21.4 ratio | B8
20 | 13.3 ratio | B9
21 | 18.7 ratio | B4
22 | 13.4 ratio | B5
23 | 11.9 ratio | B6
24 | 17.4 ratio | B7

Target: T2, human tissue factor pathway inhibitor …
Experiment: competitive ELISA
Remark: another data set of the same source

Row | variant/HC_K99L | Binder
25 | 19.6 ratio | B8
26 | 18.3 ratio | B9
27 | 18.8 ratio | B4
28 | 17.8 ratio | B5
29 | 16.4 ratio | B6
30 | 19.7 ratio | B7

Target: T2, human tissue factor pathway inhibitor …
Experiment: SPR, TFPI immobilized

Row | KD fold improvement | Kd | koff | kon | Binder
31 | 1 fold | 1.85 nM | 0.0038 s⁻¹ | 2.05e+06 M⁻¹ s⁻¹ | B2
32 | 50.7 fold | 0.0365 nM | 5.29e-05 s⁻¹ | 1.45e+06 M⁻¹ s⁻¹ | B8
33 | 31.7 fold | 0.0584 nM | 3.61e-05 s⁻¹ | 617000 M⁻¹ s⁻¹ | B9
34 | 22 fold | 0.0841 nM | 0.000141 s⁻¹ | 1.68e+06 M⁻¹ s⁻¹ | B4
35 | 50.9 fold | 0.0364 nM | 0.000105 s⁻¹ | 2.88e+06 M⁻¹ s⁻¹ | B5
36 | 39.6 fold | 0.0467 nM | 0.000154 s⁻¹ | 3.29e+06 M⁻¹ s⁻¹ | B6
37 | 53.7 fold | 0.0344 nM | 9.88e-05 s⁻¹ | 2.87e+06 M⁻¹ s⁻¹ | B7

Target: T2, human tissue factor pathway inhibitor …
Experiment: SPR, TFPI immobilized
Remark: another data set of the same source

Row | kd fold improvement against 4B7 | Binder
38 | ~50 fold | B1

Target: T3, recombinant TFPI of the FXa restoring …
Experiment: cell-based or functional assay
Remark: another data set of the same source

Row | IC50, FXa restoring assay | Improvement vs parental, FXa restoring assay | Binder
39 | 0.058 µg/mL | 25 fold | B1
40 | 0.7 µg/mL | 1 fold | B2
41 | 0.181 µg/mL | 3.9 fold | B3

Target: T1, mouse tissue factor pathway inhibitor …
Experiment: competitive ELISA
Remark: another data set of the same source

Row | variant/wild-type | Binder
42 | 10.8 ratio | B3

Target: T2, human tissue factor pathway inhibitor …
Experiment: competitive ELISA
Remark: another data set of the same source

Row | variant/wild-type | Binder
43 | 13.5 ratio | B3

Target: T2, human tissue factor pathway inhibitor …
Experiment: SPR, TFPI immobilized
Remark: another data set of the same source

Row | Improvement | Kd | koff | kon | Binder
44 | 191 fold | 0.0582 nM | 0.000165 s⁻¹ | 2.83e+06 M⁻¹ s⁻¹ | B1
45 | 1 fold | 2.24 nM | 0.007 s⁻¹ | 3.13e+06 M⁻¹ s⁻¹ | B2
46 | 7.22 fold | 0.309 nM | 0.000803 s⁻¹ | 2.6e+06 M⁻¹ s⁻¹ | B3
